Results reported in patent publication US20120027739A1.

Target: … HLA-A*01 complex (soluble, biotinylated)
Experiment: BIAcore SPR; pHLA immobilised via biotin, soluble TCR injected

B1: soluble disulfide-linked MAGE-A3 TCR: alpha chain with variable domain SEQ ID No: 8, reference TCR beta chain (TCR, V domains shown)
V domain 1: KQEVTQIPAALSVPEGENLVLNCSFTDSAIYNLQWFRQDPGKGLTSLLLVRPYQREQTSGRLNASLDKSSGRSTLYIAASQPGDSATYLCAVRPGGAGSYQLTFGKGTKLSVIP
V domain 2: KAGVTQTPRYLIKTRGQQVTLSCSPISGHRSVSWYQQTPGQGLQFLFEYFSETQRNKGNFPGRFSGRQFSNSRSEMNVSTLELGDSALYLCASSPNMADEQYFGPGTRLTVTE
  Kd: 6.55 µM
  T½: 6.1 s
  koff: 0.114 s⁻¹
